Consider 6 variants from IntAct's records for PubMed 31515488.

B1: MIF4G domain-containing protein (Homo sapiens), A9UHW6 (parent)
chain: MGEPSREEYKIQSFDAETQQLLKTALKDPGAVDLEKVANVIVDHSLQDCVFSKEAGRMCYAIIQAESKQAGQSVFRRGLLNRLQQEYQAREQLRARSLQGWVCYVTFICNIFDYLRVNNMPMMALVNPVYDCLFRLAQPDSLSKEEEVDCLVLQLHRVGEQLEKMNGQRMDELFVLIRDGFLLPTGLSSLAQLLLLEIIEFRAAGWKTTPAAHKYYYSEVSD
partner: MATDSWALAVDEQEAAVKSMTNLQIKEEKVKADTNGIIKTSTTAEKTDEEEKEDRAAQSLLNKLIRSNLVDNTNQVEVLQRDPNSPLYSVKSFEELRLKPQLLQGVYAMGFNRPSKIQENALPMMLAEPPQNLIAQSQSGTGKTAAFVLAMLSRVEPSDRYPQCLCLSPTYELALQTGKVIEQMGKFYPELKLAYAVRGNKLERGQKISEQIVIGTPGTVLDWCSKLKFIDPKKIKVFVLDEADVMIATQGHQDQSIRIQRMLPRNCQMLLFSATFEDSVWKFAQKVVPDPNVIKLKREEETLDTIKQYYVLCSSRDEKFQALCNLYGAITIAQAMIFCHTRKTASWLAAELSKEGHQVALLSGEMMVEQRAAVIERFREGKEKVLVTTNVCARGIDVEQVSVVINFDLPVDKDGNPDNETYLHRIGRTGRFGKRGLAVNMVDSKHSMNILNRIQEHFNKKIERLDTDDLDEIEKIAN
B2: Serine/arginine-rich splicing factor 4 (Homo sapiens), Q08170 (parent)
chain: MPRVYIGRLSYQARERDVERFFKGYGKILEVDLKNGYGFVEFDDLRDADDAVYELNGKDLCGERVIVEHARGPRRDGSYGSGRSGYGYRRSGRDKYGPPTRTEYRLIVENLSSRCSWQDLKDYMRQAGEVTYADAHKGRKNEGVIEFVSYSDMKRALEKLDGTEVNGRKIRLVEDKPGSRRRRSYSRSRSHSRSRSRSRHSRKSRSRSGSSKSSHSKSRSRSRSGSRSRSKSRSRSQSRSRSKKEKSRSPSKEKSRSRSHSAGKSRSKSKDQAEEKIQNNDNVGKPKSRSPSRHKSKSKSRSRSQERRVEEEKRGSVSRGRSQEKSLRQSRSRSRSKGGSRSRSRSRSKSKDKRKGRKRSREESRSRSRSRSKSERSRKRGSKRDSKAGSSKKKKKEDTDRSQSRSPSRSVSKEREHAKSESSQREGRGESENAGTNQETRSRSRSNSKSKPNLPSESRSRSKSASKTRSRSKSRSRSASRSPSRSRSRSHSRS
B3: PHD finger protein 1 (Homo sapiens), O43189 (parent)
chain: MAQPPRLSRSGASSLWDPASPAPTSGPRPRLWEGQDVLARWTDGLLYLGTIKKVDSAREVCLVQFEDDSQFLVLWKDISPAALPGEELLCCVCRSETVVPGNRLVSCEKCRHAYHQDCHVPRAPAPGEGEGTSWVCRQCVFAIATKRGGALKKGPYARAMLGMKLSLPYGLKGLDWDAGHLSNRQQSYCYCGGPGEWNLKMLQCRSCLQWFHEACTQCLSKPLLYGDRFYEFECCVCRGGPEKVRRLQLRWVDVAHLVLYHLSVCCKKKYFDFDREILPFTSENWDSLLLGELSDTPKGERSSRLLSALNSHKDRFISGREIKKRKCLFGLHARMPPPVEPPTGDGALTSFPSGQGPGGGVSRPLGKRRRPEPEPLRRRQKGKVEELGPPSAVRNQPEPQEQRERAHLQRALQASVSPPSPSPNQSYQGSSGYNFRPTDARCLPSSPIRMFASFHPSASTAGTSGDSGPPDRSPLELHIGFPTDIPKSAPHSMTASSSSVSSPSPGLPRRSAPPSPLCRSLSPGTGGGVRGGVGYLSRGDPVRVLARRVRPDGSVQYLVEWGGGGIF
partner: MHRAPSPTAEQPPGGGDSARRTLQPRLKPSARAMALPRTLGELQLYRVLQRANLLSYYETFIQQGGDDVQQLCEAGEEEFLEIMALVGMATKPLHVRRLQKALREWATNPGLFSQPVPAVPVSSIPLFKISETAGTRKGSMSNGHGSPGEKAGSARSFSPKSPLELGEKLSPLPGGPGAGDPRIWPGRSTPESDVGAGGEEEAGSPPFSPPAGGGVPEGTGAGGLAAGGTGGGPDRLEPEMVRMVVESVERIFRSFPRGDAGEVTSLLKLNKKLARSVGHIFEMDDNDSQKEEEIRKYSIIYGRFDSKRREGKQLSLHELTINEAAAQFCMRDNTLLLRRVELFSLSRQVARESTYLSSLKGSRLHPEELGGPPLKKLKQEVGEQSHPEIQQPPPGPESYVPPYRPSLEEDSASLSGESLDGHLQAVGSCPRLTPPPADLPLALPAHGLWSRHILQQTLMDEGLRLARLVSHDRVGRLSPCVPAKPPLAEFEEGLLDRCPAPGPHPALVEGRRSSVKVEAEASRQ
B4: FXYD domain-containing ion transport regulator 3 (Homo sapiens), Q14802 (parent)
chain: MQKVTLGLLVFLAGFPVLDANDLEDKNSPFYYDWHSLQVGGLICAGVLCAMGIIIVMSAKCKCKFGQKSGHHPGETPPLITPGSAQS
partner: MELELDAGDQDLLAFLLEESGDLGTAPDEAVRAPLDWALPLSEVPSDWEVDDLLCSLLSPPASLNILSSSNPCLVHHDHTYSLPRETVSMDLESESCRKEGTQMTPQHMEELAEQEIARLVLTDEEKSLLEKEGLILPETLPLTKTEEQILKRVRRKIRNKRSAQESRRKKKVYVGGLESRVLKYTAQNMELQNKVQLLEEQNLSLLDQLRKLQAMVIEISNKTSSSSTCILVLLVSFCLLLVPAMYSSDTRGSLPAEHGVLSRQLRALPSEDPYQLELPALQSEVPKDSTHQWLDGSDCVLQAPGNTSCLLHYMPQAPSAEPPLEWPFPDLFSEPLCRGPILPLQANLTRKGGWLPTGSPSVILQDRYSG
B5: Syntenin-2 (Homo sapiens), Q9H190 (parent)
chain: MSSLYPSLEDLKVDQAIQAQVRASPKMPALPVQATAISPPPVLYPNLAELENYMGLSLSSQEVQESLLQIPEGDSTAVSGPGPGQMVAPVTGYSLGVRRAEIKPGVREIHLCKDERGKTGLRLRKVDQGLFVQLVQANTPASLVGLRFGDQLLQIDGRDCAGWSSHKAHQVVKKASGDKIVVVVRDRPFQRTVTMHKDSMGHVGFVIKKGKIVSLVKGSSAARNGLLTNHYVCEVDGQNVIGLKDKKIMEILATAGNVVTLTIIPSVIYEHMVKKLPPVLLHHTMDHSIPDA
partner: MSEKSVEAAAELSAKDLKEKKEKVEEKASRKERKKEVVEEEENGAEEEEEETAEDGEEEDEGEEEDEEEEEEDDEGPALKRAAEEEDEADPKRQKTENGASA
B6: Zinc finger protein 544 (Homo sapiens), Q6NX49 (parent)
chain: MEARSMLVPPQASVCFEDVAMAFTQEEWEQLDLAQRTLYREVTLETWEHIVSLGLFLSKSDVISQLEQEEDLCRAEQEAPRDWKATLEENRLNSEKDRAREELSHHVEVYRSGPEEPPSLVLGKVQDQSNQLREHQENSLRFMVLTSERLFAQREHCELELGGGYSLPSTLSLLPTTLPTSTGFPKPNSQVKELKQNSAFINHEKNGADGKHCESHQCARAFCQSIYLSKLGNVETGKKNPYEYIVSGDSLNYGSSLCFHGRTFSVKKSDDCKDYGNLFSHSVSLNEQKPVHFGKSQYECDECRETCSESLCLVQTERSGPGETPFRCEERCAAFPMASSFSDCNIIQTTEKPSVCNQCGKSFSCCKLIHQRTHTGEKPFECTQCGKSFSQSYDLVIHQRTHTGEKPYECDLCGKSFTQRSKLITHQRIHTGEKPYQCIECRKSFRWNSNLIVHQRIHTGEKPYECTHCGKSFSQSYELVTHKRTHTGEKPFKCTQCGKSFSQKYDLVVHQRTHTGEKPYECNLCGKSFSQSSKLITHQRIHTGEKPYQCIECGKSFRWNSNLVIHQRIHTGEKPYDCTHCGKSFSQSYQLVAHKRTHTGEKPYECNECGKAFNRSTQLIRHLQIHTGEKPYKCNQCNKAFARSSYLVMHQRTHTGEKPFECSQCGKAFSGSSNLLSHHRIHSGEKPYECSDCGKSFRQQSQLVVHRRTHTGEKP

In the first experiment the parent is B1. As to conditions: with dd19a_human DDX19A.
In the case of E160K, the “effect of a mutation on the interaction” value is “with no effect”.

In a further experiment the parent is B2. As to conditions: with srsf6_human SRSF6, Q13247.
Sequence of srsf6_human SRSF6, Q13247 (Q13247 whole entry, looked up): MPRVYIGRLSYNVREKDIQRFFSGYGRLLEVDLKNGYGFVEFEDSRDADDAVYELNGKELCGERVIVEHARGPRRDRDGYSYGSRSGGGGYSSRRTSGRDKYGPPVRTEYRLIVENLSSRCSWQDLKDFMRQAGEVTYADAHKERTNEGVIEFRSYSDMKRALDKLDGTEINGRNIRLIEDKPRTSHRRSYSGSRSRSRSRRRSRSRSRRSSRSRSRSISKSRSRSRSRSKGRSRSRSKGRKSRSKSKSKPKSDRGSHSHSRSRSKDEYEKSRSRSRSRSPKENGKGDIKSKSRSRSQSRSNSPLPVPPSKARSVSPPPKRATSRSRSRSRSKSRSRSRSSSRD
In the case of G338A, the “effect of a mutation on the interaction” value is “with no effect”.

The next experiment covers variants of B3. As to conditions: with nab2_human NAB2, Q15742.
Take S14L: the “effect of a mutation on the interaction” value is “with no effect”.

In the next experiment the parent is B4. The conditions noted are these: with creb3_human CREB3, O43889.
On to G40S, for which the “effect of a mutation on the interaction” value is given as “disrupting interaction strength”.

Another experiment covers variants of B5. As to conditions: with ptms_human PTMS.
R223C: the “effect of a mutation on the interaction” value is “disrupting interaction strength”.

In the next experiment the parent is B6. As to conditions: with traf2_human TRAF2, Q12933.
Sequence of traf2_human TRAF2, Q12933 (Q12933 whole entry): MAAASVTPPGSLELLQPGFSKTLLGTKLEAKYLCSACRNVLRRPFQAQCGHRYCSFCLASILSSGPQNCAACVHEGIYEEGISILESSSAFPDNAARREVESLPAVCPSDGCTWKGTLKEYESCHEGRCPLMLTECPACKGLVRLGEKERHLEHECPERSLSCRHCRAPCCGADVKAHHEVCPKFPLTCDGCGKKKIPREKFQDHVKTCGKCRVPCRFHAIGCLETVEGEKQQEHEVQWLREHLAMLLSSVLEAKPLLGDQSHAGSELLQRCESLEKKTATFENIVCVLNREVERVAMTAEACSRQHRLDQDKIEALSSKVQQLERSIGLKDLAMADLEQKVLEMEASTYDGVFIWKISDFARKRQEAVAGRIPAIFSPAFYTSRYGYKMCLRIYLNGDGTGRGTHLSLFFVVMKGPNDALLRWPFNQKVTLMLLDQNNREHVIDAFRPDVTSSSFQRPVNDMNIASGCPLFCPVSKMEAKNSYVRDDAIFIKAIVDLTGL
As for K406M, the “effect of a mutation on the interaction” value is on record as “disrupting interaction strength”.
